Test results reported in patent publication US20210147519A1 (Regeneron, published 2021).

Assays:
[1] = molecular target: T1, native human complement component C1q protein purified from human serum (Quidel) (human, UniProt P02745 23-245; P02746 28-253; P02747 29-245); experiment: cell-based or functional assay
[2] = molecular target: T1, native human complement component C1q …; experiment: cell-based or functional assay; remark: listed apart in the source
[3] = molecular target: T2, IsdB expressed on the surface of S. aureus Wood 46 (Staphylococcus aureus); experiment: ELISA on plate-coated S. aureus Wood 46
T2 construct: whole, on cells
Protocol: Briefly, S. aureus Wood 46 was grown in RPMI overnight, washed in PBS and adjusted to an OD₆₀₀ of 0.25. MaxiSorp 96 well microtiter plates were coated overnight with 100 μl of S. aureus culture per well. Plates were washed and blocked with 3% BSA. […] Anti-human HRP conjugated secondary antibody was added to washed plates. Luminescence reagents (SuperSignal Pico) were then added to the wells and signal was detected in a plate reader (Victor X3 plate reader, Perkin Elmer) immediately. Luminescence values were analyzed by a four-parameter logistic equation over a 7-point response curve (GraphPad Prism) to determine the binding EC₅₀, of the antibodies.

[4] = molecular target: T1, native human complement component C1q …; experiment: SPR Biacore, captured Ab, hC1q analyte, 25C
[5] = molecular target: T1, native human complement component C1q …; experiment: SPR Biacore, captured Ab, hC1q analyte, 37C
[6] = molecular target: T3, Recombinant bacterial IsdB expressed with a hexahistidine tag (IsdB-6xHis; REGN2655) (Staphylococcus aureus, UniProt A6QG30 42-613); experiment: SPR Biacore, captured Ab, IsdB-6xHis analyte, 25C
[7] = molecular target: T3, Recombinant bacterial IsdB expressed …; experiment: SPR Biacore, captured Ab, IsdB-6xHis analyte, 37C
[8] = molecular target: T1, native human complement component C1q …; experiment: competition ELISA, 6 nM biot-hC1q, competitor plate-coated hIgM
[9] = molecular target: T1, native human complement component C1q …; experiment: competition ELISA, 6 nM biot-hC1q, competitor plate-coated hIgG2-k
[10] = molecular target: T1, native human complement component C1q …; experiment: competition ELISA, 30 pM biot-hC1q, competitor plate-coated hIgG1-k
[11] = molecular target: T1, native human complement component C1q …; experiment: competition ELISA, 30 pM biot-hC1q, competitor plate-coated hIgG3-k

T3 sequence (A6QG30 42-613, tags left off): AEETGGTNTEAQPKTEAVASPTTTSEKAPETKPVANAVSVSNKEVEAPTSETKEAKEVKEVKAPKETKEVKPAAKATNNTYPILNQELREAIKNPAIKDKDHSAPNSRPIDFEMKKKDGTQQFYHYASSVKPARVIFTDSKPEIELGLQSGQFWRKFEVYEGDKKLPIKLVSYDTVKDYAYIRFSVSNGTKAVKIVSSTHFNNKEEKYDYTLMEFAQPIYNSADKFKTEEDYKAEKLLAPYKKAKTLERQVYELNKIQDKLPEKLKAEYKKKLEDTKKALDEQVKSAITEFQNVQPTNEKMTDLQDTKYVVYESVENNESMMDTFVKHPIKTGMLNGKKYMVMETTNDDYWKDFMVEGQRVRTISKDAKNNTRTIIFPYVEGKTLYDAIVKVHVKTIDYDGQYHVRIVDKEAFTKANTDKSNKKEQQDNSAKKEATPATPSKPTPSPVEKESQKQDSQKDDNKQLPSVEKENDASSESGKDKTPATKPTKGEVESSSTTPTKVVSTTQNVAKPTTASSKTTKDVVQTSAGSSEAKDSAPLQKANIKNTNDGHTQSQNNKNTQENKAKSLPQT
T1 sequence (P02745 23-245 limits assumed, chain 1 of 3): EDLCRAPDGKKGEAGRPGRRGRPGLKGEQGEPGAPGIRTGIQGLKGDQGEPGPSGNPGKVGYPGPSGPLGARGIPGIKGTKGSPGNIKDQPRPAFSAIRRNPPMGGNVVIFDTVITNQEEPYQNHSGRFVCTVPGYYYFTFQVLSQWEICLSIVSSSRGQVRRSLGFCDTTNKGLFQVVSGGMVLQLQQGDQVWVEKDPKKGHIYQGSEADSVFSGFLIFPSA
T1 sequence (P02746 28-253 limits assumed, chain 2 of 3): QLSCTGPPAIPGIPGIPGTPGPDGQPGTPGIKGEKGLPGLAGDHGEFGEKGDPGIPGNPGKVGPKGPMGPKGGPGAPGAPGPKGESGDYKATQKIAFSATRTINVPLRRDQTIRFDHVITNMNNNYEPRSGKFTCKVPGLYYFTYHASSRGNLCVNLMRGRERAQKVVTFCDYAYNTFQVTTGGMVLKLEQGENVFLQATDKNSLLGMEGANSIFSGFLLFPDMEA
T1 sequence (P02747 29-245 limits assumed, chain 3 of 3): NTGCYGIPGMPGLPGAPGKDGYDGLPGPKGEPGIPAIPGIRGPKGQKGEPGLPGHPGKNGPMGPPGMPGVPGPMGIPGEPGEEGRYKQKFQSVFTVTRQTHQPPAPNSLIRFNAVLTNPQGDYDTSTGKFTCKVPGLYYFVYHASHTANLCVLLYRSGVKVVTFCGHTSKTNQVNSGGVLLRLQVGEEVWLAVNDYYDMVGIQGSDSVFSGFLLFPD
T2 sequence (Q2FZF0 41-613): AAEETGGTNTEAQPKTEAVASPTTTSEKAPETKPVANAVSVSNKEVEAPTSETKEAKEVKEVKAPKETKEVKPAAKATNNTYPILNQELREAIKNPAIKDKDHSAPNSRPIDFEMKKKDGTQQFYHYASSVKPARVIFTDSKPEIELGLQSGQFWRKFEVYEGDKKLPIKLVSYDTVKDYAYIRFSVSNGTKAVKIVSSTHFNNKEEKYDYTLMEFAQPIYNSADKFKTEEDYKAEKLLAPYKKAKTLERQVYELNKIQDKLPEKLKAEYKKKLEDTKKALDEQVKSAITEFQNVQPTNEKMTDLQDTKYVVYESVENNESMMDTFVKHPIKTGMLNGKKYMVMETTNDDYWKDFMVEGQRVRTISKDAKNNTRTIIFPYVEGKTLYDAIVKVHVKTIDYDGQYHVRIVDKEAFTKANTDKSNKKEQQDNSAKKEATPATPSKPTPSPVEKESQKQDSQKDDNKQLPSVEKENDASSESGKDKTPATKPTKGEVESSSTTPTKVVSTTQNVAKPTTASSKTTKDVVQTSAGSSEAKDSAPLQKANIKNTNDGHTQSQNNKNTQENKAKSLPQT

B1: H1H20639D (bispecific antibody, V domains shown)
VH 1: QLQLQESGPGLVKPSETLSLTCTVSGGSISSSSYYWVWIRQPPGKGLEWIGNIYFSGSTYYNPSLKSRVTITVDTSKNQFSLKMTSVTAADTAVYYCARPFYGSRGDYYYGMDVWGQGTTVTVSS
VH 2: QVQLVESGGGVVQPGRSLRLSCAASGFTFSSYGMHWVRQAPGKGLEWVTNIWYDGNNKYYTDSVKGRFTISRDNSKNTLYLQMNSLTAEDTAVYYCARDGDYYVMDVWGQGTTVTVSS
VL: not shown
notes: also called anti-IsdB x anti-C1q bispecific antibody
For B1, the “inhibition of CDC of Daudi cells, IC50 [M]” value (from here on “inhibition of CDC … [M]”) [1] was greater than 1e-07 M, the “inhibition of CDC of Daudi cells, Max % Inhibition” value (from here on “inhibition … Max % Inhibition”) [1] was 70% and the “C1q deposition on S. aureus Cowan I EC50” value [2] was 2.06 nM. For the same binder, the EC50 [3] was 13.3 nM, the Kd [4] was 0.655 nM and the koff [4] was 0.00612 s⁻¹. The kon [4] was 9.35e+06 M⁻¹ s⁻¹, the t½ [4] was 1.89 min and the Kd [5] was 0.664 nM. For the same binder, the koff [5] was 0.00859 s⁻¹, the kon [5] was 1.29e+07 M⁻¹ s⁻¹ and the t1/2 [5] was 1.34 min. It also gave a Kd [6] of 11.3 nM, a koff [6] of 0.000562 s⁻¹ and a kon [6] of 49800 M⁻¹ s⁻¹. For the same binder, the t½ [6] was 20.5 min, the Kd [7] was 18.5 nM and the koff [7] was 0.00148 s⁻¹. The kon [7] was 80200 M⁻¹ s⁻¹, the t1/2 [7] was 7.81 min and the “% Blockade with 600 nM bispecific Ab” value [8] was 86%. For the same binder, the IC50 [8] was 42 nM, the “% Blockade with 600 nM bispecific Ab” value [9] was 82% and the IC50 [9] was 70 nM. The “% Blockade with 30 nM bispecific Ab” value [10] was 64% and the “% Blockade with 30 nM bispecific Ab” value [11] was 33%.

B2: H1H20640D (bispecific antibody, V domains shown)
VH 1: QLQLQESGPGLVKPSETLSLTCTVSGGSISSSSYYWVWIRQPPGKGLEWIGNIYFSGSTYYNPSLKSRVTITVDTSKNQFSLKMTSVTAADTAVYYCARPFYGSRGDYYYGMDVWGQGTTVTVSS
VH 2: EVQLVQSGPEVKKPGESLKISCKGSGYNFLGYWIGWVRQMPEKGLEWMAFIYPGDSDFRYSPSFQGQVTISVDRSVTTAYLHWSSLKASDTGIYFCVRQTGNGMDVWGQGTTVTVSS
VL: not shown
notes: as for B1
B2 showed an EC50 [3] of 18 nM, a Kd [6] of 9.36 nM and a koff [6] of 0.000553 s⁻¹. For the same binder, the kon [6] was 59100 M⁻¹ s⁻¹, the t½ [6] was 20.9 min and the Kd [7] was 17.2 nM. For the same binder, the koff [7] was 0.00142 s⁻¹, the kon [7] was 82800 M⁻¹ s⁻¹ and the t1/2 [7] was 8.13 min.

B3: H1H20645D (bispecific antibody, V domains shown)
VH 1: QLQLQESGPGLVKPSETLSLTCTVSGGSISSSSYYWVWIRQPPGKGLEWIGNIYFSGSTYYNPSLKSRVTITVDTSKNQFSLKMTSVTAADTAVYYCARPFYGSRGDYYYGMDVWGQGTTVTVSS
VH 2: EVQLVQSGPEVKKPGESLKIACKASGYSFTSYWIGWVRQMPGKGLEWMGIIFPADSDTRYSPSFQGQVTISADKSITTAYLQWRSLQASDTAKYYCVRHVRWSGENWGQGTLVTVSS
VL: not shown
notes: as for B1
In the case of B3, the “inhibition of CDC … [M]” value [1] is reported as 3.4e-08 M, the “inhibition … Max % Inhibition” value [1] is reported as no less than 99% and the “C1q deposition on S. aureus Cowan I EC50” value [2] is reported as 0.298 nM. For the same binder, the EC50 [3] was 11.9 nM, the Kd [4] was 0.158 nM and the koff [4] was 0.00452 s⁻¹. It also gave a kon [4] of 2.86e+07 M⁻¹ s⁻¹, a t½ [4] of 2.56 min and a Kd [5] of 0.88 nM. The koff [5] was 0.0317 s⁻¹, the kon [5] was 3.6e+07 M⁻¹ s⁻¹ and the t1/2 [5] was 0.36 min. The Kd [6] was 9.95 nM, the koff [6] was 0.000551 s⁻¹ and the kon [6] was 55400 M⁻¹ s⁻¹. It also gave a t½ [6] of 21 min, a Kd [7] of 19.1 nM and a koff [7] of 0.00155 s⁻¹. The kon [7] was 81200 M⁻¹ s⁻¹, the t1/2 [7] was 7.43 min and the “% Blockade with 600 nM bispecific Ab” value [8] was 95%. For the same binder, the IC50 [8] was 13 nM, the “% Blockade with 600 nM bispecific Ab” value [9] was 87% and the IC50 [9] was 18 nM. The “% Blockade with 30 nM bispecific Ab” value [10] was 94%, the IC50 [10] was 0.84 nM and the “% Blockade with 30 nM bispecific Ab” value [11] was 87%. The IC50 [11] was 5.3 nM.

B4: H1H20643D (bispecific antibody, V domains shown)
VH 1: QLQLQESGPGLVKPSETLSLTCTVSGGSISSSSYYWVWIRQPPGKGLEWIGNIYFSGSTYYNPSLKSRVTITVDTSKNQFSLKMTSVTAADTAVYYCARPFYGSRGDYYYGMDVWGQGTTVTVSS
VH 2: EVQLVQSGAEVKKPGDSLKISCKGSGYSFTTYWIGWVRQMPGKGLEWMGIIFPGDSDTRYSPSFQGQVTISADKSINTAYLQWSSLKASDTAIYYCARHNRWVADYWGQGTLVTVSS
VL: not shown
notes: as for B1
Work on B4 yielded an EC50 [3] of 10.1 nM, a Kd [6] of 9.42 nM and a koff [6] of 0.000555 s⁻¹. It also gave a kon [6] of 58900 M⁻¹ s⁻¹, a t½ [6] of 20.8 min and a Kd [7] of 18.5 nM. It also gave a koff [7] of 0.00148 s⁻¹, a kon [7] of 79900 M⁻¹ s⁻¹ and a t1/2 [7] of 7.81 min.

B5: H1H20646D (bispecific antibody, V domains shown)
VH 1: QLQLQESGPGLVKPSETLSLTCTVSGGSISSSSYYWVWIRQPPGKGLEWIGNIYFSGSTYYNPSLKSRVTITVDTSKNQFSLKMTSVTAADTAVYYCARPFYGSRGDYYYGMDVWGQGTTVTVSS
VH 2: EVQLVQSGAEVRKPGESLKISCKGSGFSFTSYWIGWVRQMPGKGLEWMGIIFPADSDTRYSPSFQGQVTISADKSINTAYLQWRSLKVSDTAMYYCTKLQYWYFDLWGRGTLVTVSS
VL: not shown
notes: as for B1
Work on B5 yielded an EC50 [3] of 12.9 nM, a Kd [6] of 9.74 nM and a koff [6] of 0.000433 s⁻¹. The kon [6] was 44500 M⁻¹ s⁻¹, the t½ [6] was 26.7 min and the Kd [7] was 18.5 nM. It also gave a koff [7] of 0.0015 s⁻¹, a kon [7] of 80700 M⁻¹ s⁻¹ and a t1/2 [7] of 7.72 min.

B6: H1H20644D (bispecific antibody, V domains shown)
VH 1: QLQLQESGPGLVKPSETLSLTCTVSGGSISSSSYYWVWIRQPPGKGLEWIGNIYFSGSTYYNPSLKSRVTITVDTSKNQFSLKMTSVTAADTAVYYCARPFYGSRGDYYYGMDVWGQGTTVTVSS
VH 2: QVQLVESGGGVVQPGRSLRLSCATSGFTFSSYGMHWVRQAPGKGLEWVALIWYDRNNEYYADSVKGRFTISRDNSKNTLYLQMNSLRAEDTAVYYCARGEWEMDYWGQGTLVTVSS
VL: not shown
notes: as for B1
In the case of B6, the “inhibition of CDC … [M]” value [1] is reported as greater than 1e-07 M, the “inhibition … Max % Inhibition” value [1] is reported as 88% and the “C1q deposition on S. aureus Cowan I EC50” value [2] is reported as 1.12 nM. It also gave an EC50 [3] of 12.6 nM, a Kd [4] of 0.232 nM and a koff [4] of 0.00624 s⁻¹. It also gave a kon [4] of 2.69e+07 M⁻¹ s⁻¹, a t½ [4] of 1.85 min and a Kd [5] of 0.924 nM. The koff [5] was 0.0276 s⁻¹, the kon [5] was 2.98e+07 M⁻¹ s⁻¹ and the t1/2 [5] was 0.42 min. The Kd [6] was 11 nM, the koff [6] was 0.000554 s⁻¹ and the kon [6] was 50300 M⁻¹ s⁻¹. The t½ [6] was 20.8 min, the Kd [7] was 18.2 nM and the koff [7] was 0.0015 s⁻¹. The kon [7] was 82500 M⁻¹ s⁻¹, the t1/2 [7] was 7.7 min and the “% Blockade with 600 nM bispecific Ab” value [8] was 75%. For the same binder, the IC50 [8] was 43 nM, the “% Blockade with 600 nM bispecific Ab” value [9] was 81% and the IC50 [9] was 63 nM. For the same binder, the “% Blockade with 30 nM bispecific Ab” value [10] was 66%, the IC50 [10] was 24 nM and the “% Blockade with 30 nM bispecific Ab” value [11] was 36%.

B7: H1H20647D (bispecific antibody, V domains shown)
VH 1: QLQLQESGPGLVKPSETLSLTCTVSGGSISSSSYYWVWIRQPPGKGLEWIGNIYFSGSTYYNPSLKSRVTITVDTSKNQFSLKMTSVTAADTAVYYCARPFYGSRGDYYYGMDVWGQGTTVTVSS
VH 2: QVQLVESGGGVVQPGRSLRLSCAASGFTFSSYGMHWVRQAPGKGLEWVALIWYDGSNKYFADSVKGRFTISRDISKNTLYLQMNSLRAEDTAVYYCARDGDYYGMDVWGQGTTVTVSS
VL: not shown
notes: as for B1
B7 was tested, and the “inhibition of CDC … [M]” value [1] was greater than 1e-07 M, the “inhibition … Max % Inhibition” value [1] was 82% and the “C1q deposition on S. aureus Cowan I EC50” value [2] was 0.587 nM. It also gave an EC50 [3] of 7.3 nM, a Kd [4] of 0.368 nM and a koff [4] of 0.0034 s⁻¹. It also gave a kon [4] of 9.25e+06 M⁻¹ s⁻¹, a t½ [4] of 3.39 min and a Kd [5] of 0.439 nM. It also gave a koff [5] of 0.00576 s⁻¹, a kon [5] of 1.31e+07 M⁻¹ s⁻¹ and a t1/2 [5] of 2 min. For the same binder, the Kd [6] was 12.3 nM, the koff [6] was 0.000565 s⁻¹ and the kon [6] was 46000 M⁻¹ s⁻¹. It also gave a t½ [6] of 20.4 min, a Kd [7] of 21.5 nM and a koff [7] of 0.00154 s⁻¹. The kon [7] was 71500 M⁻¹ s⁻¹, the t1/2 [7] was 7.51 min and the “% Blockade with 600 nM bispecific Ab” value [8] was 91%. For the same binder, the IC50 [8] was 25 nM, the “% Blockade with 600 nM bispecific Ab” value [9] was 80% and the IC50 [9] was 32 nM. The “% Blockade with 30 nM bispecific Ab” value [10] was 85%, the IC50 [10] was 9 nM and the “% Blockade with 30 nM bispecific Ab” value [11] was 60%.

B8: H1H20634D (bispecific antibody, V domains shown)
VH 1: EVQLVESGGGLVQPGRSLRLSCTTSGFTFDDYAMHWVRQVPGQGLEWVAGLSWNSDTIGYADSVKGRFTISRDNAKNSLYLQMKSLKAEDTALYYCTKDFYHSLNNWNYYYFDYWGQGTLVTVSS
VH 2: QVQLVESGGGVVQPGRSLRLSCVASGFTFSSYGFHWVRQAPGKGLEWVAVIWYDGSNEGYVDSVRGRFTISRDFSKNTLYLQMNSLRIEDTAVYYCARRGDYYIMDVWGQGTTVTVSS
VL: not shown
notes: as for B1
Work on B8 yielded an EC50 [3] of 1.04 nM, a Kd [6] of 2.65 nM and a koff [6] of 0.000296 s⁻¹. For the same binder, the kon [6] was 112000 M⁻¹ s⁻¹, the t½ [6] was 39 min and the Kd [7] was 3.81 nM. It also gave a koff [7] of 0.000573 s⁻¹, a kon [7] of 150000 M⁻¹ s⁻¹ and a t1/2 [7] of 20.2 min.
